PMC8254080 (Biochemistry and Biophysics Reports, 2021)
Where two headings read alike, the source gives them in different places.

Tests used:
cryo-EM structure [1] = target: the molecule itself; test: cryo-EM structure
cryo-EM structure [2] = target: the molecule itself; test: cryo-EM structure; remark: listed apart in the source

Protein	binding result (cryo-EM structure [1])	binding result (cryo-EM structure [2])
Shigella MxiH (type 3 needle filament protomer) with N-terminal Strep-tag II and factor Xa cleavage site (natural protein, UniProt P0A223 1-83, looked up) MSVTVPNDDWTLSSLSETFDDGTQTLQGELTLALDKLAKNPSNPQLLAEYQSKLSEYTLYRNAQSNTVKVIKDVDAAIIQNFR	binds	
Salmonella PrgI (type 3 needle filament protomer, SPI-1) (natural protein, Salmonella (strain SB905)) MATPWSGYLDDVSAKFDTGVDNLQTQVTEALDKLAAKPSDPALLAAYQSKLSEYNLYRNAQSNTVKVFKDIDAAIIQNFR		binds
